From paper PMC5441903, “The E3 ligase ABI3-INTERACTING PROTEIN2 negatively regulates FUSCA3 and plays a role in cotyledon development in Arabidopsis thaliana” (Journal of Experimental Botany, 2017)

Target: T1, GST–FUS3 (Arabidopsis thaliana, UniProt Q9LW31 1-313)
T1 construct: FUSCA3 (FUS3), Arabidopsis thaliana, At3g26790; GST fusion of ~66 kDa, construct described in Lu et al. (2010); probably the whole FUS3; also called glutathione S-transferase (GST)–FUS3; source: recombinant, purified (glutathione resin)
T1 sequence (looked up): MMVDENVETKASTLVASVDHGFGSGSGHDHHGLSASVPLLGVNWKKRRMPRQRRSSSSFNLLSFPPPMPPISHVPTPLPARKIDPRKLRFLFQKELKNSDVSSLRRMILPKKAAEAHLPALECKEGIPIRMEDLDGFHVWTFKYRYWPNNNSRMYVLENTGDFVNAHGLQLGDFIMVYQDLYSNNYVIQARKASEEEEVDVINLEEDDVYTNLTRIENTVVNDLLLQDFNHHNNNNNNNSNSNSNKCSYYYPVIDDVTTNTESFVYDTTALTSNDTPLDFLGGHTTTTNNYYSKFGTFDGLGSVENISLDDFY
Test: pull-down; purified GST–FUS3 as bait, purified AIP2-6×His variants as prey; glutathione resin; immunoblots with anti-His and anti-GST
Details: both partners purified

Binder	binding result
FLAG-AIP2-6×His (natural protein, Arabidopsis thaliana, UniProt Q8RXD3 1-310, looked up, tagged protein of ~40 kDa; also called AIP2-His; source: cloned into pET28, purified (Ni-NTA-agarose)) MDASSSPSPSEESLKLELDDLQKQLNKKLRFEASVCSIHNLLRDHYSSSSPSLRKQFYIVVSRVATVLKTRYTATGFWVAGLSLFEEAERLVSDASEKKHLKSCVAQAKEQLSEVDNQPTESSQGYLFEGHLTVDREPPQPQWLVQQNLMSAFASIVGGESSNGPTENTIGETANLMQELINGLDMIIPDILDDGGPPRAPPASKEVVEKLPVIIFTEELLKKFGAEAECCICKENLVIGDKMQELPCKHTFHPPCLKPWLDEHNSCPICRHELPTDDQKYENWKEREKEAEEERKGAENAVRGGEYMYV	binds
AIP2^(C/S,E/G)-6×His (inactive AIP2 variant) (natural protein, Arabidopsis thaliana, UniProt Q8RXD3 1-310, looked up, ~40 kDa; Probably the same FLAG-...-6×His construct as m5 with the three mutations; source: recombinant, purified) MDASSSPSPSEESLKLELDDLQKQLNKKLRFEASVCSIHNLLRDHYSSSSPSLRKQFYIVVSRVATVLKTRYTATGFWVAGLSLFEEAERLVSDASEKKHLKSCVAQAKEQLSEVDNQPTESSQGYLFEGHLTVDREPPQPQWLVQQNLMSAFASIVGGESSNGPTENTIGETANLMQELINGLDMIIPDILDDGGPPRAPPASKEVVEKLPVIIFTEELLKKFGAEAESSICKGNLVIGDKMQELPCKHTFHPPCLKPWLDEHNSCPICRHELPTDDQKYENWKEREKEAEEERKGAENAVRGGEYMYV	binds
